This assay deals with T1, Flag-labeled truncated PINK1 (amino acids 321-509) (UniProt Q9BXM7 321-509).
T1 construct: PINK1, amino acids 321-509; also called C-lobe of kinase domain of PINK1; kinase domain C; source: HEK293T, purified using 3x Flag peptide
The experiment in a line: pull-down; purified Flag-PINK1 (full length or truncated) incubated with biotin-labeled PD-L1 ICD peptide in 25 mM Tris-HCl pH 7.4, 150 mM NaCl, 1 mM EDTA, 0.05% NP-40, 10% glycerol for 12 h at 4 °C; streptavidin sepharose beads or anti-Flag M2 affinity gel 1.5 h; five washes; immunoblot. As to conditions: both partners purified.

No end group written: not given here.

The values below come from publication PMC9977947, “Targeting ATAD3A-PINK1-mitophagy axis overcomes chemoimmunotherapy resistance by redirecting PD-L1 to mitochondria” (Cell Research, 2023).

T1 sequence (Q9BXM7 321-509): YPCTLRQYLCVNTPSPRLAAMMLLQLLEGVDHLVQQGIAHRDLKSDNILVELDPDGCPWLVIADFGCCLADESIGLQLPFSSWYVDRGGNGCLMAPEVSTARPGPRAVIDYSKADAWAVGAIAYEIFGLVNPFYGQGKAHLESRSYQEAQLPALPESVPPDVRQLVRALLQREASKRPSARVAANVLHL

B1: Biotin-labeled PD-L1 ICD peptide (amino acids 262-290) (peptide, UniProt Q9NZQ7 262-290, looked up)
peptide: RKGRMMDVKKCGIQDTNSKKQSDTHLEET
modifications: also: biotin-labeled, position not given here
notes: PD-L1 (CD274), intracellular domain, amino acids 262-290; also called intracellular domain of PD-L1; intracellular region of PD-L1; source: synthetic peptide (GenScript)
B1: the binding result is listed as “binds”.
